Data as given in the supplement of paper PMC9112550, “Optimization of the antimicrobial peptide Bac7 by deep mutational scanning” (BMC Biology, 2022).

Test system: Escherichia coli TOP10
Assay: shrunken log2 fold change of peptide-encoding DNA abundance (4.5 h post-induction vs induction); higher = less antimicrobial activity (less host growth inhibition)
Details: time post-induction: 4.5 h; library: site-saturation at positions 5, 18, 19, 20
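Also: peptides expressed intracellularly from a pBAD plasmid library in pooled LB shake-flask culture, induced with 0.3% L-arabinose, DNA abundance read by NGS, three biological replicates, DESeq2 with apeglm shrinkage.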

Row | Sequence | shrunken log2 fold change
1 | RRIRMRPPRLPRPRPRPSNHPRP | 0.00558
2 | RRIRERPPRLPRPRPRPEMHPRP | 0.0332
3 | RRIRVRPPRLPRPRPRPCGLPRP | -0.173
4 | RRIRWRPPRLPRPRPRPAEGPRP | 0.000853
5 | RRIRIRPPRLPRPRPRPSTSPRP | -0.492
6 | RRIRTRPPRLPRPRPRPQWQPRP | 0.0822
7 | RRIRSRPPRLPRPRPRPWCHPRP | -0.4
8 | RRIRNRPPRLPRPRPRPWQTPRP | 0.0295
9 | RRIRGRPPRLPRPRPRPEMFPRP | 0.0463
10 | RRIRTRPPRLPRPRPRPKWGPRP | 0.118
11 | RRIRHRPPRLPRPRPRPCVNPRP | -0.166
12 | RRIRHRPPRLPRPRPRPCTWPRP | -0.0924
13 | RRIRYRPPRLPRPRPRPHPCPRP | -0.125
14 | RRIRQRPPRLPRPRPRPVQDPRP | -0.0297
15 | RRIRWRPPRLPRPRPRPAQKPRP | 0.157
16 | RRIRNRPPRLPRPRPRPFPDPRP | -0.00602
17 | RRIRNRPPRLPRPRPRPIESPRP | -0.00107
18 | RRIRRRPPRLPRPRPRPMYMPRP | -0.212
19 | RRIRNRPPRLPRPRPRPCIFPRP | -0.697
20 | RRIRMRPPRLPRPRPRPEANPRP | 3.83
21 | RRIRHRPPRLPRPRPRPQGMPRP | -0.201
22 | RRIRNRPPRLPRPRPRPDNKPRP | -1.35
23 | RRIRDRPPRLPRPRPRPQRIPRP | -0.142
24 | RRIRVRPPRLPRPRPRPTPDPRP | 0.182
25 | RRIRFRPPRLPRPRPRPKWRPRP | 0.413

Row | Sequence | shrunken log2 fold change
26 | RRIRPRPPRLPRPRPRPKMVPRP | 0.0319
27 | RRIRERPPRLPRPRPRPHIHPRP | -0.135
28 | RRIRTRPPRLPRPRPRPQEKPRP | -0.0148
29 | RRIRIRPPRLPRPRPRPNHVPRP | -0.278
30 | RRIRERPPRLPRPRPRPMDAPRP | -0.0623
31 | RRIRWRPPRLPRPRPRPSYIPRP | -0.715
32 | RRIRRRPPRLPRPRPRPPEKPRP | 1.6
33 | RRIRFRPPRLPRPRPRPIAAPRP | 0.417
34 | RRIRKRPPRLPRPRPRPGDEPRP | 0.128
35 | RRIRNRPPRLPRPRPRPTTTPRP | 0.082
36 | RRIRWRPPRLPRPRPRPCFPPRP | -0.164
37 | RRIRLRPPRLPRPRPRPKKRPRP | 0.277
38 | RRIRRRPPRLPRPRPRPDSFPRP | -0.0228
39 | RRIRSRPPRLPRPRPRPNFQPRP | -0.089
40 | RRIRPRPPRLPRPRPRPTKQPRP | 0.169
41 | RRIRWRPPRLPRPRPRPLFPPRP | 0.0582
42 | RRIRGRPPRLPRPRPRPLAIPRP | 0.567
43 | RRIRRRPPRLPRPRPRPQHGPRP | 0.198
44 | RRIRHRPPRLPRPRPRPTVKPRP | -0.255
45 | RRIRIRPPRLPRPRPRPNKMPRP | -0.464
46 | RRIRPRPPRLPRPRPRPKVEPRP | 0.00158
47 | RRIRNRPPRLPRPRPRPEMLPRP | 0.0345
48 | RRIRCRPPRLPRPRPRPEVMPRP | -0.0567
49 | RRIRYRPPRLPRPRPRPKFEPRP | -0.0286
50 | RRIRFRPPRLPRPRPRPLDNPRP | 0.0244

Row | Sequence | shrunken log2 fold change
51 | RRIRMRPPRLPRPRPRPQFVPRP | -0.0894
52 | RRIRTRPPRLPRPRPRPKSCPRP | -0.0893
53 | RRIRVRPPRLPRPRPRPWMEPRP | -0.124
54 | RRIRERPPRLPRPRPRPKWIPRP | -0.54
55 | RRIRKRPPRLPRPRPRPRYNPRP | -0.312
56 | RRIRERPPRLPRPRPRPPYIPRP | -0.252
57 | RRIRPRPPRLPRPRPRPGHKPRP | -0.287
58 | RRIRLRPPRLPRPRPRPWVSPRP | 0.442
59 | RRIRFRPPRLPRPRPRPRCVPRP | -0.0244
60 | RRIRNRPPRLPRPRPRPWTQPRP | -0.0178
61 | RRIRVRPPRLPRPRPRPCAGPRP | -0.106
62 | RRIRYRPPRLPRPRPRPYNWPRP | -0.593
63 | RRIRDRPPRLPRPRPRPSQMPRP | 0.0862
64 | RRIRARPPRLPRPRPRPCDYPRP | -0.295
65 | RRIRGRPPRLPRPRPRPMFTPRP | 0.522
66 | RRIRHRPPRLPRPRPRPCERPRP | -0.0535
67 | RRIRERPPRLPRPRPRPPDEPRP | -0.0361
68 | RRIRNRPPRLPRPRPRPPDNPRP | -0.146
69 | RRIRSRPPRLPRPRPRPNPYPRP | -0.558
70 | RRIRTRPPRLPRPRPRPCMSPRP | -0.196
71 | RRIRERPPRLPRPRPRPQPLPRP | -0.202
72 | RRIRKRPPRLPRPRPRPQFKPRP | -0.037
73 | RRIRNRPPRLPRPRPRPRRKPRP | 0.0625
74 | RRIRIRPPRLPRPRPRPNFKPRP | -0.144
75 | RRIRCRPPRLPRPRPRPTMWPRP | 0.259

Row | Sequence | shrunken log2 fold change
76 | RRIRGRPPRLPRPRPRPAFQPRP | 0.202
77 | RRIRKRPPRLPRPRPRPKPMPRP | 0.515
78 | RRIRQRPPRLPRPRPRPHTLPRP | -0.263
79 | RRIRCRPPRLPRPRPRPTYTPRP | -0.793
80 | RRIRDRPPRLPRPRPRPQGSPRP | -0.0152
81 | RRIRMRPPRLPRPRPRPMLPPRP | 0.301
82 | RRIRYRPPRLPRPRPRPFEEPRP | -0.0344
83 | RRIRIRPPRLPRPRPRPESYPRP | 0.0064
84 | RRIRPRPPRLPRPRPRPYDIPRP | -0.88
85 | RRIRPRPPRLPRPRPRPPCVPRP | 0.128
86 | RRIRERPPRLPRPRPRPFESPRP | 0.00731
87 | RRIRMRPPRLPRPRPRPNYVPRP | -0.536
88 | RRIRWRPPRLPRPRPRPSIQPRP | -0.0487
89 | RRIRTRPPRLPRPRPRPDPQPRP | -0.0945
90 | RRIRTRPPRLPRPRPRPLRAPRP | 1.05
91 | RRIRVRPPRLPRPRPRPVVWPRP | 0.385
92 | RRIRHRPPRLPRPRPRPRPFPRP | -0.18
93 | RRIRCRPPRLPRPRPRPHQHPRP | -0.302
94 | RRIRIRPPRLPRPRPRPVNQPRP | 0.0745
95 | RRIRYRPPRLPRPRPRPYFKPRP | -1.83
96 | RRIRTRPPRLPRPRPRPTFKPRP | -0.227
97 | RRIRPRPPRLPRPRPRPDGLPRP | -0.117
98 | RRIRCRPPRLPRPRPRPAVLPRP | -0.218
99 | RRIRRRPPRLPRPRPRPAQFPRP | 0.135
100 | RRIRFRPPRLPRPRPRPIFEPRP | -0.0328

Row | Sequence | shrunken log2 fold change
101 | RRIRDRPPRLPRPRPRPNFGPRP | 0.0243
102 | RRIRKRPPRLPRPRPRPCMNPRP | -0.279
103 | RRIRARPPRLPRPRPRPYCVPRP | 0.118
104 | RRIRPRPPRLPRPRPRPHRWPRP | 0.25
105 | RRIRMRPPRLPRPRPRPLQIPRP | -0.343
106 | RRIRARPPRLPRPRPRPKSMPRP | 0.0164
107 | RRIRDRPPRLPRPRPRPYVNPRP | -1.59
108 | RRIRLRPPRLPRPRPRPHDHPRP | 0.0691
109 | RRIRWRPPRLPRPRPRPMQYPRP | 0.0439
110 | RRIRMRPPRLPRPRPRPCMDPRP | 0.104
111 | RRIRCRPPRLPRPRPRPERQPRP | -0.00823
112 | RRIRARPPRLPRPRPRPDGSPRP | 0.0886
113 | RRIRARPPRLPRPRPRPFNRPRP | -0.277
114 | RRIRHRPPRLPRPRPRPPNCPRP | -0.19
115 | RRIRSRPPRLPRPRPRPQEPPRP | -0.284
116 | RRIRFRPPRLPRPRPRPYCIPRP | -0.597
117 | RRIRHRPPRLPRPRPRPVMHPRP | 0.000945
118 | RRIRSRPPRLPRPRPRPFDEPRP | 0.0719
119 | RRIRVRPPRLPRPRPRPGMKPRP | -1.14
120 | RRIRSRPPRLPRPRPRPFITPRP | -0.798
121 | RRIRLRPPRLPRPRPRPSKDPRP | -0.364
122 | RRIRTRPPRLPRPRPRPGVEPRP | -0.0469
123 | RRIRQRPPRLPRPRPRPTWVPRP | 2.03
124 | RRIRSRPPRLPRPRPRPMLHPRP | -0.424
125 | RRIRLRPPRLPRPRPRPYITPRP | -0.716

Row | Sequence | shrunken log2 fold change
126 | RRIRMRPPRLPRPRPRPKKVPRP | 0.561
127 | RRIRERPPRLPRPRPRPDCAPRP | 0.115
128 | RRIRYRPPRLPRPRPRPRRCPRP | 0.254
129 | RRIRDRPPRLPRPRPRPVCEPRP | 1.18
130 | RRIRNRPPRLPRPRPRPMSIPRP | 0.00262
131 | RRIRQRPPRLPRPRPRPARNPRP | 0.298
132 | RRIRKRPPRLPRPRPRPDRSPRP | -0.231
133 | RRIRWRPPRLPRPRPRPQFLPRP | -0.0223
134 | RRIRCRPPRLPRPRPRPMGMPRP | -0.184
135 | RRIRCRPPRLPRPRPRPWMKPRP | -0.0192
136 | RRIRERPPRLPRPRPRPQAVPRP | 0.0552
137 | RRIRRRPPRLPRPRPRPKRDPRP | 0.5
138 | RRIRYRPPRLPRPRPRPSRNPRP | -0.12
139 | RRIRVRPPRLPRPRPRPGCNPRP | -0.216
140 | RRIRKRPPRLPRPRPRPTSGPRP | -0.064
141 | RRIRVRPPRLPRPRPRPHREPRP | -0.223
142 | RRIRLRPPRLPRPRPRPFMCPRP | -0.0925
143 | RRIRGRPPRLPRPRPRPDIWPRP | 0.598
144 | RRIRIRPPRLPRPRPRPRYVPRP | -0.45
145 | RRIRSRPPRLPRPRPRPYYCPRP | 2.2
146 | RRIRDRPPRLPRPRPRPLSIPRP | -0.0668
147 | RRIRYRPPRLPRPRPRPKIKPRP | -0.583
148 | RRIRKRPPRLPRPRPRPNYRPRP | 0.123
149 | RRIRCRPPRLPRPRPRPKTIPRP | -0.141
150 | RRIRWRPPRLPRPRPRPLITPRP | 0.0192
